Test results: US20170165338A1

biological target: HLA-A*24 (human); test: UV-exchange b2m ELISA

Binder	peptide exchange yield [%]
EYSLFPGQVVI	50 to 75
IYATEAHVF	50 to 75
DYTTWTALL	> 75
YYGPSLFLL	50 to 75
YYVESGKLF	> 75
YFIDSTNLKTHF	50 to 75
VYVGGGQIIHL	50 to 75
TYKDEGNDYF	50 to 75
TYELRYFQI	> 75
HYPPVQVLF	50 to 75
QYLGQIQHI	50 to 75
NYINRILKL	> 75
AYTLIAPNI	50 to 75
VYTLDIPVL	> 75
IYLVSIPEL	> 75

Other lines, results leading:

peptide exchange yield [%]	Binder
20 to 49	AYVVFVSTL
50 to 75	VFTRVSSFL
> 75	VYQGHTALL
> 75	TYSVSFPMF
50 to 75	RYAEEVGIF
> 75	VYWDSAGAAHF
50 to 75	KFSSFSLFF
50 to 75	LYITEPKTI
50 to 75	TFSVSSHLF
50 to 75	YYKSTSSAF
50 to 75	LYIDRPLPYL
50 to 75	EYNQWFTKL
> 75	IYSWILDHF
> 75	KYQDILETI
> 75	DYLKGLASF
20 to 49	VYEDQVGKF
50 to 75	NYYEVHKELF
50 to 75	LFIPSSKLLFL
20 to 49	PYRLIFEKF
> 75	YYEVHKELF
